Test results reported in article PMC8124314.
Read-outs that look alike come from different tables or passages of the source.

Experiments:
[1] = target: E-cadherin (Homo sapiens) (UniProt P12830); conditions: cited from earlier work
[2] = target: MBP-fused epithelial cadherin (MBP-eCAD); assay: SPR
[3] = target: MBP-fused epithelial cadherin (MBP-eCAD); assay: SPR; remark: listed apart in the source

Substance | Kd [1] [µM] | Kd [2] [µM] | koff [2] [s⁻¹] | kon [2] [M⁻¹ s⁻¹] | Kd [3] [µM]
E-cadherin (from UniProt P12830) | 100 | – | – | – | –
MBP-fused epithelial cadherin (MBP-eCAD) (domain or fragment) | – | 0.197 | 0.000696 | 4650 | 197
